# Measured values published in article PMC13544220, “Glycemic and bodyweight effects of GIPR coding variation reflect differences in surface expression and intrinsic functional impairment” (Science Advances, 2026).
# Positions count from the first letter of the chain named. In names and notes the source's numbering stands.
# B1: T116R (protein, UniProt P48546 22-466, looked up, variant T116R)
# Gastric inhibitory …: RAETGSKGQTAGELYQRWERYRRECQETLAAAEPPSGLACNGSFDMYVCWDYAAPNATARASCPWYLPWHHHVAAGFVLRQCGSDGQWGLWRDHRQCENPEKNEAFLDQRLILERLQVMYTVGYSLSLATLLLALLILSLFRRLHCTRNYIHINLFTSFMLRAAAILSRDRLLPRPGPYLGDQALALWNQALAACRTAQIVTQYCVGANYTWLLVEGVYLHSLLVLVGGSEEGHFRYYLLLGWGAPALFVIPWVIVRYLYENTQCWERNEVKAIWWIIRTPILMTILINFLIFIRILGILLSKLRTRQMRCRDYRLRLARSTLTLVPLLGVHEVVFAPVTEEQARGALRFAKLGFEIFLSSFQGFLVSVLYCFINKEVQSEIRRGWHHCRLRRSLGEEQRQLPERAFRALPSGSGPGEVPTSRGLSSGTLPGPGNEASRELESYC
# B2: L262V (protein, UniProt P48546 22-466, looked up, variant L262V)
# Gastric inhibitory …: B1 Gastric inhibitory … with R95T, L241V
# Assays:
# Type in all cases: cell-based, human
# [1] = tested on: wild-type and variant SNAP-GIPR; experiment: Single-concentration GIP cAMP response by HTRF in INS-1 cells; conditions: Fig S3E, mean
# Method: (§1) All variants were tested in parallel on each occasion to control for transfection efficiency differences between experiments.
# [2] = tested on: wild-type and variant SNAP-GIPR; experiment: Single-concentration GIP cAMP response by HTRF in AD293 cells; conditions: Fig S3F, HTRF, mean;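 further: ratio to experiment-wide average response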
# Method: as §1
# [3] = tested on: wild-type and variant SNAP-GIPR; experiment: cADDis cAMP imaging in AD293 cells, ensemble, expression-matched and per decile; conditions: Fig S3F, cADDis, mean;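 further: Ensemble cells as % of IBMX/FSK response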
# Outline: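 Variants and wild type ran in parallel in transfected AD293 cells carrying cADDis. Single-cell sensor intensity, with nonresponders to IBMX/FSK removed, was paired with SNAP-Surface 647 labeling to allow expression-matched analysis.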
# [4] = tested on: wild-type and variant SNAP-GIPR; experiment: Constitutive and agonist-mediated internalization, reversible SNAP-tag labelling, INS-1 cells; parameters: key to Internalisation, GIP-only / Internalisation, Vehicle / Internalisation, +GIP: % internalization: residual fluorescence after Mesna vs pre-Mesna; conditions: Mean; for +GIP internalisation (100 nM) / GIP-specific internalisation (100 nM) / Constitutive internalisation (100 nM): Fig 4G; for +GIP internalisation (100 nM) / GIP-specific internalisation (100 nM): GIP 100 nM; for Internalisation, +GIP / Internalisation, GIP-only / Internalisation, Vehicle: Fig S4C, INS-1
# Outline: (§2)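 % internalization = residual specific fluorescence after Mesna / pre-Mesna value. Imaging in TNE buffer pH 8.6; second image 10 min post-Mesna.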
# [5] = tested on: wild-type and variant SNAP-GIPR; experiment: Constitutive and agonist-mediated internalization, reversible SNAP-tag labelling, AD293 cells; parameters: key to Internalisation, Vehicle / Internalisation, +GIP / Internalisation, GIP-only: % internalization: residual fluorescence after Mesna vs pre-Mesna; Surface expression: unit not given here; conditions: Mean; for +GIP internalisation (100 nM) / GIP-specific internalisation (100 nM) / Constitutive internalisation (100 nM) / Surface expression: Fig 4E; for +GIP internalisation (100 nM) / GIP-specific internalisation (100 nM): GIP 100 nM; for Internalisation, +GIP / Internalisation, GIP-only / Internalisation, Vehicle: Fig S4C, AD293
# Outline: as §2
# [6] = tested on: wild-type and variant SNAP-GIPR; experiment: Surface SNAP-GIPR expression (SNAP-tag labelling) in INS-1 cells; conditions: Fig 4G; Mean
# Outline: (§3)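 Surface GIPR is quantified from wide-field images after labelling intact transfected cells with a membrane-impermeant SNAP probe at 500 nM for 10 min at room temperature. Specific signal, corrected for nontransfected cells, is normalized to the experiment-wide average or to wild-type.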
# [7] = tested on: wild-type and variant SNAP-GIPR; experiment: Surface SNAP-GIPR expression (SNAP-tag labelling) in AD293 cells; conditions: for AD293 Surface: Fig S3E, mean; for Surface SNAP-GIPR expression: sheet Fig 1C;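 on all read-outs here: scaled to the experimental average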
# Outline: as §3
# [8] = column repeated, paired with cAMP 100 nM
molecule,measurement,setting,value
B1,INS-1 cAMP (100 nM),[1],1.507
same,AD293 100 pM HTRF,[2],0.9665
same,AD293 100 nM HTRF,[2],1.485
same,AD293 100 pM cADDis,[3],33.6456
same,AD293 100 nM cADDis,[3],38.18
same,+GIP internalisation (100 nM),[4],0.7228
same,GIP-specific internalisation (100 nM),[4],0.1652
same,Constitutive internalisation (100 nM),[4],0.5577
same,"Internalisation, +GIP",[4],48.6183
same,"Internalisation, GIP-only",[4],11.125
same,"Internalisation, Vehicle",[4],37.4933
same,+GIP internalisation (100 nM),[5],0.9677
same,GIP-specific internalisation (100 nM),[5],0.2939
same,Constitutive internalisation (100 nM),[5],0.6738
same,Surface expression,[5],1.687
same,"Internalisation, +GIP",[5],57.3525
same,"Internalisation, GIP-only",[5],17.4551
same,"Internalisation, Vehicle",[5],39.8973
same,Surface expression,[6],1.428
same,AD293 Surface,[7]; [8],1.324
same,AD293 Surface,[7]; paired with cAMP 100 pM,1.324
same,Surface SNAP-GIPR expression,[7]; replicate 1,1.245
same,Surface SNAP-GIPR expression,[7]; replicate 2,1.023
same,Surface SNAP-GIPR expression,[7]; replicate 3,0.6735
same,Surface SNAP-GIPR expression,[7]; replicate 4,1.28
same,Surface SNAP-GIPR expression,[7]; replicate 5,0.9777
same,Surface SNAP-GIPR expression,[7]; replicate 6,1.324
same,Surface SNAP-GIPR expression,[7]; replicate 7,1.095
same,Surface SNAP-GIPR expression,[7]; replicate 8,1.165
same,Surface SNAP-GIPR expression,[7]; replicate 9,1.067
same,Surface SNAP-GIPR expression,[7]; replicate 10,1.216
same,Surface SNAP-GIPR expression,[7]; replicate 11,0.8978
same,Surface SNAP-GIPR expression,[7]; replicate 12,1.007
same,Surface SNAP-GIPR expression,[7]; replicate 13,1.293
same,Surface SNAP-GIPR expression,[7]; replicate 14,1.058
same,Surface SNAP-GIPR expression,[7]; replicate 15,1.321
same,Surface SNAP-GIPR expression,[7]; replicate 16,1.079
same,Surface SNAP-GIPR expression,[7]; replicate 17,1.526
same,Surface SNAP-GIPR expression,[7]; replicate 18,1.463
same,Surface SNAP-GIPR expression,[7]; replicate 19,1.041
same,Surface SNAP-GIPR expression,[7]; replicate 20,1.229
same,Surface SNAP-GIPR expression,[7]; replicate 21,1.037
same,Surface SNAP-GIPR expression,[7]; replicate 22,1.307
same,Surface SNAP-GIPR expression,[7]; replicate 23,1.273
same,Surface SNAP-GIPR expression,[7]; replicate 24,1.448
same,Surface SNAP-GIPR expression,[7]; replicate 25,1.438
same,Surface SNAP-GIPR expression,[7]; replicate 26,1.564
same,Surface SNAP-GIPR expression,[7]; replicate 27,1.467
same,Surface SNAP-GIPR expression,[7]; replicate 28,1.252
same,Surface SNAP-GIPR expression,[7]; replicate 29,1.566
same,Surface SNAP-GIPR expression,[7]; replicate 30,1.334
same,Surface SNAP-GIPR expression,[7]; replicate 31,1.686
same,Surface SNAP-GIPR expression,[7]; replicate 32,1.692
same,Surface SNAP-GIPR expression,[7]; replicate 33,1.307
same,Surface SNAP-GIPR expression,[7]; replicate 34,1.109
same,Surface SNAP-GIPR expression,[7]; replicate 35,1.705
same,Surface SNAP-GIPR expression,[7]; replicate 36,1.374
same,Surface SNAP-GIPR expression,[7]; replicate 37,1.911
same,Surface SNAP-GIPR expression,[7]; replicate 38,1.787
same,Surface SNAP-GIPR expression,[7]; replicate 39,1.944
same,Surface SNAP-GIPR expression,[7]; replicate 40,1.676
same,Surface SNAP-GIPR expression,[7]; replicate 41,1.421
B2,INS-1 cAMP (100 nM),[1],1.234
same,AD293 100 pM HTRF,[2],1.19
same,AD293 100 nM HTRF,[2],1.331
same,AD293 100 pM cADDis,[3],31.1728
same,AD293 100 nM cADDis,[3],39.27
same,+GIP internalisation (100 nM),[4],0.5955
same,GIP-specific internalisation (100 nM),[4],0.1388
same,Constitutive internalisation (100 nM),[4],0.4567
same,"Internalisation, +GIP",[4],50.3417
same,"Internalisation, GIP-only",[4],11.92
same,"Internalisation, Vehicle",[4],38.4217
same,+GIP internalisation (100 nM),[5],0.6926
same,GIP-specific internalisation (100 nM),[5],0.1787
same,Constitutive internalisation (100 nM),[5],0.5139
same,Surface expression,[5],1.204
same,"Internalisation, +GIP",[5],57.508
same,"Internalisation, GIP-only",[5],14.8294
same,"Internalisation, Vehicle",[5],42.6786
same,Surface expression,[6],1.205
same,AD293 Surface,[7]; [8],1.3
same,AD293 Surface,[7]; paired with cAMP 100 pM,1.3
same,Surface SNAP-GIPR expression,[7]; replicate 1,1.375
same,Surface SNAP-GIPR expression,[7]; replicate 2,0.996
same,Surface SNAP-GIPR expression,[7]; replicate 3,2.76
same,Surface SNAP-GIPR expression,[7]; replicate 4,0.9875
same,Surface SNAP-GIPR expression,[7]; replicate 5,1.257
same,Surface SNAP-GIPR expression,[7]; replicate 6,2.431
same,Surface SNAP-GIPR expression,[7]; replicate 7,1.521
same,Surface SNAP-GIPR expression,[7]; replicate 8,0.9638
same,Surface SNAP-GIPR expression,[7]; replicate 9,1.328
same,Surface SNAP-GIPR expression,[7]; replicate 10,1.382
same,Surface SNAP-GIPR expression,[7]; replicate 11,1.153
same,Surface SNAP-GIPR expression,[7]; replicate 12,1.188
same,Surface SNAP-GIPR expression,[7]; replicate 13,1.165
same,Surface SNAP-GIPR expression,[7]; replicate 14,1.166
same,Surface SNAP-GIPR expression,[7]; replicate 15,1.23
same,Surface SNAP-GIPR expression,[7]; replicate 16,1.047
same,Surface SNAP-GIPR expression,[7]; replicate 17,1.27
same,Surface SNAP-GIPR expression,[7]; replicate 18,1.238
same,Surface SNAP-GIPR expression,[7]; replicate 19,0.9807
same,Surface SNAP-GIPR expression,[7]; replicate 20,0.8682
same,Surface SNAP-GIPR expression,[7]; replicate 21,1.136
same,Surface SNAP-GIPR expression,[7]; replicate 22,1.402
same,Surface SNAP-GIPR expression,[7]; replicate 23,1.295
same,Surface SNAP-GIPR expression,[7]; replicate 24,1.372
same,Surface SNAP-GIPR expression,[7]; replicate 25,1.308
same,Surface SNAP-GIPR expression,[7]; replicate 26,1.104
same,Surface SNAP-GIPR expression,[7]; replicate 27,1.5
same,Surface SNAP-GIPR expression,[7]; replicate 28,1.095
same,Surface SNAP-GIPR expression,[7]; replicate 29,1.555
same,Surface SNAP-GIPR expression,[7]; replicate 30,1.424
same,Surface SNAP-GIPR expression,[7]; replicate 31,1.568
same,Surface SNAP-GIPR expression,[7]; replicate 32,1.239
same,Surface SNAP-GIPR expression,[7]; replicate 33,1.116
same,Surface SNAP-GIPR expression,[7]; replicate 34,1.325
same,Surface SNAP-GIPR expression,[7]; replicate 35,1.446
same,Surface SNAP-GIPR expression,[7]; replicate 36,1.136
same,Surface SNAP-GIPR expression,[7]; replicate 37,0.8646
same,Surface SNAP-GIPR expression,[7]; replicate 38,1.251
same,Surface SNAP-GIPR expression,[7]; replicate 39,1.117
same,Surface SNAP-GIPR expression,[7]; replicate 40,1.314
same,Surface SNAP-GIPR expression,[7]; replicate 41,1.425
